Test results as given in patent US20150072922A1, “RNASE 7 ANTIMICROBIAL PEPTIDES” (THE RESEARCH INSTITUTE AT NATIONWIDE CHILDREN'S HOSPITAL, priority 2012, published 2015).
“Also recorded” adds a separate entry of the source.

Key:
human erythocytes = type: cell-based
Experimental: Hemolytic assay: To determine the hemolytic activity of RNase 7, washed human erythocytes are incubated for 1 hour at 37° C. with a serial two-fold dilution of recombinant RNase 7 and its fragments in pyrogen free saline. After incubation, centrifugation to remove intact erythrocytes and a 10-fold dilution of supernatant, the concentration of released hemoglobin is measured in a micotitre plate reader at 405 nm. (Biochem J. Feb. 15 2008; 410(1):113-122) The peptide concentration that results in 50% hemolysis of erythrocytes will be designated the HC50.

uropathogenic E. coli = assay: RNase7 antibacterial activity, MIC on strains isolated from positive urine cultures; type: cell-based, Escherichia coli; conditions: uropathogenic E. coli isolated from urine cultures (N=3)
Description: (§1) Laboratory bacterial strains from the American Type Culture Collection (ATCC, Manassas, Va.) and strains isolated from positive urine cultures were obtained from the Microbiology Laboratory at Nationwide Children's Hospital.

[1] = tested on: ATCC non-uropathogenic strains; assay: RNase7 antibacterial activity, MIC on laboratory strains; type: cell-based; conditions: ATCC non-uropathogenic strains (N=3 distinct strains)
Description: as §1

[2] = tested on: E. Coli, P. aeruginosa and E. faecalis; assay: Atomic Force Microscopy of bacterial morphology; type: cell-based; conditions: twice the MIC, 1×10^9 cfu, FIG. 13
Experimental: (See FIG. 13) 1×10^9 cfu of E. Coli, P. aeruginosa and E. faecalis were incubated with twice the MIC of RNase 7. Ultra-pure water was used as a negative control. AFM imaging was performed with the Multimode AFM instrument (Veeco, Santa Barbara, Calif.) at Ohio State.

[3] = tested on: Human primary bladder urothelial cells and renal medullary epithelial cells; assay: Cytotoxic assay; type: cell-based
Experimental: Cytotoxic assay: The urothelial cells that line the bladder and distal nephron epithelial cells are the primary areas of RNase7 protein expression in the kidney and urinary tract. Thus, the cytotoxicity of variant peptides on these epithelia is determined. Human primary bladder urothelial cells (Catalog #4320, ScienCell Research Laboratories, Carlsbad, Calif.) and renal medullary epithelial cells (Catalog # FC-0018, Lifeline Cell Technology, Frederick, Md.) are cultured according to the manufacture's instructions. Cytotoxicity is measured with the Live/Dead Viability/Cytotoxicity Kit for mammalian cells (Catalog number # L3224, Invitrogen/Molecular Probes, Eugene Oreg.) according to the manufacturer's fluorescence microplate protocol and expressed as the percentage of viable cells after treatment with serial two-fold dilutions of RNase 7 and its deletion fragments incubated for 1 hour at 37° C. The results of the cytotoxic assay are reported as the EC50 or the concentration that results in 50% cell death.

Escherichia coli (UTI89) = assay: SYTOX Green bacterial cell death / membrane permeabilization assay; type: cell-based; conditions: 3 hours, FIG. 1, compared to full-length
Experimental: (§2) Assays of the permeabilization of bacterial membrane were performed with SYTOX green nucleic acid stain (Invitrogen™). The overnight cultures of bacteria were centrifuged at 5000 rpm for 5 min, the pellets were then washed with water and resuspended in water with an OD=0.5. 90 μl of each bacteria were then incubated with 10 μl of peptides with different concentrations for 3 hours at 37° C. in a 96-well plate. 100 μl of 2 μM SYTOX Green (Invitrogen™) were then added to each well and incubated in dark for 15 min. SYTOX green penetrates cells with compromised membranes not the membranes of live cells. The increase of fluorescence was measured using […] filters for excitation and emission wavelengths, respectively. Bacteria alone and bacteria treated with 70% ethanol were used as controls and the fluorescence from each was recorded as Fmin and Fmax. The percentage of cell death at each concentration for each fragment was calculated as below: death %=(F−Fmin)/(Finax−Fmin)*100%
(§3) To confirm the accuracy of our MIC/MBC data, cell death assays using SYTOX Green (Invitrogen), which selectivity labels nucleic acids of cells with compromised membranes of dead/dying cells were performed. Overnight cultures of bacteria were centrifuged at 5000 rpm for 5 minutes. Pellets were then washed with PBS (pH 7.4) and resuspended in PBS to an OD600 of 0.5 for Escherichia coli (UTI89) and OD600 of 0.8 for Staphylococcus saprophyticus. Per manufacturerer's instructions, 90 μl of each bacteria strain were incubated with 100 μl of 2 uM SYTOX Green for 15 minutes. Ten microliters of peptides at various concentrations were added for 3 hours at 37° C. in a 96-well plate. Compromised bacterial membranes of dead/dying cells will be labeled while lives cells are not labeled as noted by Invitrogen. Fluorescence was measured using 485 and 520-nm filters for excitation and emission wavelengths, respectively. Untreated bacteria were used as a 100% live control, and fluorescence was noted as Fmin. To elicit complete killing, bacteria were treated with 70% ethanol for 1 hour. This experimental group's fluorescence was noted as Fmax. The percentage of cell death at each concentration for each fragment was calculated as (Ffragment−Fmin)/(Fmax−Fmin)×100%.

[4] = tested on: Staphylococcus saprophyticus; assay: as above; type: cell-based; conditions: 3 hours, FIG. 2, compared to full-length
Experimental: as §2, §3

B1: RNase7: recombinant full-length human Ribonuclease 7, amino acids 1-128 (SEQ ID NO: 1), N-terminal His tag (protein, listed as Homo sapiens)
chain: KPKGMTSSQWFKIQHMQPSPQACNSAMKNINKHTKRCKDLNTFLHEPFSSVAATCQTPKIACKNGDKNCHQSHGPVSLTMCKLTSGKYPNCRYKEKRQNKSYVVACKPPQKKDSQQFHLVPVHLDRVL
modifications: N-terminal His tag
Human erythocytes
  hemolytic properties: no cytoxic or hemolytic properties
Uropathogenic E. coli
  mean inhibitory concentration (MIC): 2.5 µM
[1]
  mean inhibitory concentration (MIC): 1.3 µM
[2]
  morphological effect on bacteria (AFM): direct bacteriocidal effects on multiple microbes
[3]
  cytotoxic properties: no cytoxic or hemolytic properties

B2: F:1-97: recombinant N-terminal RNase 7 fragment, amino acids 1 to 97 (SEQ ID NO: 5), N-terminal His tag (protein, listed as Homo sapiens)
chain: KPKGMTSSQWFKIQHMQPSPQACNSAMKNINKHTKRCKDLNTFLHEPFSSVAATCQTPKIACKNGDKNCHQSHGPVSLTMCKLTSGKYPNCRYKEKR
modifications: N-terminal His tag
Escherichia coli (UTI89)
  membrane permeabilization and death, E. coli (in words): increased permeability; also recorded: improved activity compared to the full-length protein; also recorded: increased membrane permeabilization and subsequent death against both strains
[4]
  membrane permeabilization and death, S. saprophyticus (in words): increased permeability; also recorded: improved activity compared to full-length; also recorded: increased membrane permeabilization and subsequent death against both strains
